Source: the nanobody polyreactivity screen of Harvey et al. (2022)

Assay: yeast display, Sf9 membrane polyspecificity reagent, FACS + sequencing; frameworks hold sequencing errors
Outline: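 Nanobodies came from a synthetic yeast display library in Saccharomyces cerevisiae BJ5465, induced with galactose for 36–48 hours and stained for 1 hour at 4 °C with 10% biotinylated, detergent-solubilized Sf9 membrane reagent. Cells were enriched on streptavidin microbeads and then FACS-sorted, with low and high (top ~1%) gates set on anti-HA fluorescence for expression and streptavidin fluorescence for reagent binding. Each polyreactivity label reflects the gate a clone came from. Genes were amplified by colony PCR, sequenced by MiSeq 2 × 250 and filtered by CDR length.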

Sequence | polyreactivity (PSR sort gate)
QVQHVESGGGLVQAGGSLRLSCAASGRTFSYYTMGWYRQAPGKERELVARISNRGTNTYYADSVKGRFTISRDNAKYTVYLQMNSLKPEDYAVYYCAKYYYTSIVGYDSWGQGTQVTVSS | low polyreactivity
QVQLVESGGGLVQAGGSLRLSCAASGGIFDTNAMGWYRQAPGKEREFVAAITGSGGSTYYADSVKGRFTISRDYAKNSVYLQMNSLKPEDTAVYYCAAPLSYYWVFIVRYGYDYWGQGTQVTVSS | low polyreactivity
QVQLVESGGGLVQAGGSLRLSCAASGYTMGWYRQAPGKEREYGAAINQTGGSTYADSVKGRFTISRDNAKNTVYLQMNSLKPEDTAVYYCATDPAYWGDQPPEYDYWGQGTQVTVSS | low polyreactivity
QVQLVESGGGLVQAGGSLRLSCAASGSIFFLYAMGWYRQAPGKERELVAAISRDGRTNYADSVKGRFTISRDNAKYTVYLQMKSLKPEDTAVYYGAKDGNHPGAVGYGYWGQGTQVTVSS | low polyreactivity
QVQLVESGGGFVQAGGSLRLSCAASGRIFYNYAMGWYRQAPGKERELVAAMSGSGGSTYYADSVKGRFTISRDNAKNTVYLQMNSLKPEDTAVYYCSTSGPQYYSRNVDYWGQGTQVTVSS | low polyreactivity
QVQHVESGGGLVQAGGSLRLSCAASGRTFVTYAMGWYRQAPGKERELVAAISKRGSRTYYADSVKGRFTISRDNAKNTVYLQMNSLKPEDTAVYYCNADPYRTSYDYWGQGTQVTVSS | high polyreactivity
QVQLVESGGGLVQAGGSLRLSCAASGIILDHYAMGWYRQAPGKERELVAAISSGTRTNYADSVKGRFSISRDNAKHTVSLQMNSLKPEDTAVYNCAATIYRRYRSKYSITSYWGQGTQVTVSS | high polyreactivity
QVQLVESGGGLVQAGGSLRLSCAASGSIFRYYAMGWYRQAPGKEREFVAAINTNDAGTYYADSVKGRFTISRDYAKNTVYLQMNSLKPEDTAVYYCAADTGYRFWYDYWGQGTQVTVSS | high polyreactivity
QVQLEESGGGVVQAGGSLRLSCAASGRTLSHYAIGWYRQAPGKERELVAVISWSGTSTYYADSVKGRFTISRDNAKNTVYLQMNSLKPEDTAVYYCNADTYGYYLWTGAVSAGDDYWGQGTQVTVSS | low polyreactivity
QVQHVESGGGLVQAGGSLRLSCSASGITFGYYAMGWYRQAPGKERELVAAIRSSGGSTYYADSVKGRFTISRDNAKNTVYLQMKSLKPEDTAVYYCNARYRKSSRPGYEPFERYYWGQGTQVTVSS | high polyreactivity
QVQLVESGGGLVQAGGSLRLSCAASVRIFGKYAMGRYRQAPGKERELVAAITNSGGRTYYAASVKGRFTISRDNAKNTVYLQMNSLKPEDTAVYYCAALYHASTRQMDYWGQGTQVTVSS | high polyreactivity
QVQLVESGGGLVQAGGSLRLSCAASGSTIYFYAMGWYRQAPGKERELVAAITWSGGRTYYADSVKGRFTISRDNAKNTVYLQMNSLKPEDTAVYYCAAVRPPLARLYVAAKRFDSWGQGTQVTVSS | low polyreactivity
QVQLVESGGGLVQAGGSLRLSCAASGRIFARYAMGWYRQAPGKERELVAAISRGGSTKYADSVKGRFTISRDNAKNTVYLQMNSLKPEDTAVYYCAGQLWGSPYGAYYAGDYWGQGTQVTVSS | low polyreactivity
QVQLVESGGGLVQAGGSLRLSCAASGTFWWYAMGWYRQAPGKERELVASINRGGSTYYADSVKGRFTISRDNANNTVYLQMNSLKPEDTAVYYCNAGWIGRLTPYRRATYNYWGQGTQVTVSS | high polyreactivity
QVQLVESGGGLVQAGGSLRLSCAASGRIFGRNAMGWYRQAPGKERELVAAISSSGGRTYYADSVKGRFTISRDNAKNTVYLQMNSLKPEDTAVYYCAAVGSLYYYRYDYWGQGTQVTVSS | high polyreactivity
QVQLVESGGGLVQAGGSLRLSCAASGSTFYVNAMGWYRQAPGKERELVAAIRSSAGNTTYADSVKGRFTISRDNAKNTVYLQMNSLKPEDTAVYYCAAETFYDYGGYDYWGQGTQVTVSS | low polyreactivity
QVQLVESGGGLVQAGGSLRLSCAASGRTLTQYAMGWYRQAPGTERELVAAINTSGDSTYYADSVKGRFTISRDNAKNTVYLQMNSLKPEDTAVYYCAADGFWSQLYHLYNGYDYWGQGTQVTVSS | low polyreactivity
QVQLVESGGGLVQAGGSLRLSCAASGLIFKGYDMGWYRQAPGKERELVAAISSGSTNYADSVKGRFTISRDNAKNTGYLQMNSLKPEDTAVYYCNADLGRATFYQRVFIERGGYWGQGTQVTVSS | low polyreactivity
QVQLVESGGGLVQAGGSLRVSCAASGRIFTIYAMGWYRQAPGTEREVVAAISDRGTRTYYADSVKGRFTISRDNAKNTVYVQMNSLKPEDTALYYCATDALYTYGYDYWGQGSQVTVSS | low polyreactivity
QVQLVESGGGLVQAGGSLRLSCAASGSTFDYYAMGWYRQAPGKERELVAAISSSGSRTHYADSVKGRFTISRDNAKNTVYLQMNSLKPEDTAVYYCATYTKYWRYPYDYWGQGTQVTVSS | high polyreactivity
QVQLVESGGGLVQAGGSLRLSCAASGFIFWYYDMGWYRQAPGKERELVAAISDRGGSTSYADSVKGRFTISRDNAKNTVYLQMNSLKPEDTAVYSCAVDRSLSPFAYDYWGQGTQVTVSS | low polyreactivity
QVQLEDSGGGLVQAGGSLRLSCAASGFTFYSNAMGWYRQAPGKERELVAAITRGGGSTYYADSVKGRFTISRDNAKNTVYLQMNSLKPEDTAVYYCAAEMFAPYRSTYDYWGQGTQVTVSS | low polyreactivity

Sequence | polyreactivity (PSR sort gate)
QVQLVESGGGLVQAGGSLRLSCAASGSTFPWNAMGWYRQAPGKERELDAAIRTGGGRTYYADSVKGRFTISRDNAKNTVYLQMNSLKPEDTAVYYCNAYQSSGRYRNSYGYWGQGTQVTVSS | high polyreactivity
QVQLGESGGGLVQAGGSLRLICAASGFIFTTYVMGWYRQAPGKERELVAVISRSGGRTYYADSVKGRFTISRDNEKYTVYLLMNSLKPEDTAVYYCNVDIPVLSHIEYYYWGQGTQVTVSS | low polyreactivity
QVQLVESGGGLVQAGGSLRISCAASGFIIYGYVMGWYRQAPGKERELVAAINSSSGRTYYADSVKGRFTISRDNAKNTVYLQMNSLKPEDTAVYYCAAYYYCSYDGTPYDYWGQGTQVTVSS | low polyreactivity
QVQLVESGGGLVQAGGSLRLSCAASGFTFGVYAMGWYRQAPGKERELVAAISRSSGRTYYADSVKGRFTISRDNAKNTVYLQMNSLKPVDTAVYYCAADLRYYGYYTRFRYYEMDYWGQGTQVTVSS | high polyreactivity
QVQLVESGGGLVQAGGSLRLSCAASGSTFVYNTMGWSRQAPGKERELVADITWRGASTYYADSVKGRFTISRDNAKNTVYLQMNSLKPEDTAVYYCAADYYSATGSYAYDYWGQGTQVTVSS | low polyreactivity
QVQLVESGGGLVQAGGSLRLSCAASGSIFYFYARGWYRLAPGKERELVAAIRFTGGTTYYADSVKGRFTISRDNAKNTVDLQMNSLKPEDTADYYCAKQTSYWSRGFDYWGQGTQVTVSS | low polyreactivity
QVQLVESGGGLVQAGGSLRLSCAASGRIFTGNSMGWYRQAPGKERELVAAITSSGGSTYYADSVKGRFTISRDNAKNTVYLQMNSLKPDDTAVYYCAALYSSWWSWYYYWGQGTQVTVSS | high polyreactivity
QVQLVESGGGLVQAGGSLRLSCAASGSIFTPYAMGWYRQAPGKEWELVAAISWRGCNTYYADSVKGRFTISRDNAKNTVYLQMNSLKPEDTAVYYCAAEQNYVYETGSYDYWGQGTQVTVSS | low polyreactivity
QVQLVESGGGLVQAGGSLRLSCAASGRIFNRYAMGWYRQAPGKEREFVAGITWNGGSTYYADSVKGRFTISRDNAKNTVYLQMNSLKPEDTAVYYCAATHYYYGTSRYDYWGQGTQVTVSS | high polyreactivity
QVQLVESGGGLVQAGGSLRLSCAASGLIFVDNAMGLYRQAPGKERELVAAIDSGGSTNYADSVKGRFTISRDNAKTTVYLQMNSLNPEDTAVYYCAADWIYAPWYYQESVEYYYWGQGTQVTVSS | low polyreactivity
QVQLQESGGGLVQAGGSLRLSCAASGTITVLYKMGWFRLAPGKEREFVASINYGTSTYYADSVKGRFTVSRDSAKNTVYLQMNSLKPEDTAVYYCAAAYRWQDVYRYWGQGTQVTVSS | low polyreactivity
QVQLVESGGGLVQAGGSLRLSCAASGYIFLFYGMGWYRPAPGKERELVAAITYGGGSTYYADSVKGRFTISRDNAKNTVYLQMNSLKPEDTAVYYCNAPSRLSTIFYSGYDYWGQGTQVTVSS | low polyreactivity
QVQLVESGGGLVQAGGSLRLSCAASGRIFTYNAMGWYRQAPGKERELVATITWRGGGTYYADSVKGRFTISRDNAKNTVYLQMNSLKPEDTAVYYCNRRLPGDGQYGYRRYDYWGQGTQVTVSS | low polyreactivity
QVQLVESGGGLVQAGGSLRLSCAASGSTFYPYTMGWYRQAPGKERELVASISTTGGSTNYADSVKGRFTISRDNAKNTVYLQMNSLKPEDTAVYYCAARSNYTRRLYYYYWGLGTQVTVSS | high polyreactivity
QVQLVETGGGLVQAGGSLRLSCAASGRIFYYNTMGWYRQAPGKERELVAAISSTASTTYADSVKGRFTISRDNAKNTVYLQMNSLKPEDTAVYYCAADHRYHWAYPRGYYYWGQGTQVTVSS | high polyreactivity
QVHLVESGGGLVQAGGSLRLSCAASGRTFSTYAMGWYRQAPGKESELVAAISSGGGRTYYADSVKGRFTISRDNAKNTVYLQMNSLKPEDTAVYYCAADRYFRSRRSYEYWGQGTQVTVSS | low polyreactivity
QVQLVESGGGLVQAGGSLRLSCAASGGIFPGYAMGWYRQAPGKERELVAAISGSGSSTYYADSVKGRFTISRDNAKNTVYLQMNSLKPEDTAVYYCAVYYTRGYDYWGQGTQVTVSS | high polyreactivity
QVQLEESVGGLVQAGGSLRLICAASGSIFSSYAMGWYRQAPGKERELVATISKRGGITSYADSVKGRFTISRDNAKNTVYLQMNSLKPEDTAVYYCAADSWFSYRGPLYYWGQGTQVTVSS | high polyreactivity
QVQLVESGGGLVQAGGSLRLSCAASGRTFKPYVMGWYRQAPGKERELVAAISSRGDITYYADSVKCRFTISRHNAKNTVYLHMNSLKPEDTAVYYCNAGPAVRSAYSTPYYDYWGQGTQVTVSS | low polyreactivity
QVQLVESGGGLVQAGGSLRLSCAASGSTFDWYAMGWYRQAPGKDRELVAAISSDDSTYYADSVKGRFTISRDNAKNTVYLQMNSLIPEDTAVYYCAVDVYSDYGDYGYWGQGTQVTVSS | low polyreactivity
QVQRVESGGGLVQAGGSLRLSCAASGSIFYSYAMGWYRQAPGKARELVATISWSGGRTNYADSVQGRFTISRDNAKNTVYLQMNSLKPEDTAVYYCAADIPPWGGDYWGQGTQVTVSS | low polyreactivity
